PMC10083539, “Structural insights into plasmalemma vesicle-associated protein (PLVAP): Implications for vascular endothelial diaphragms and fenestrae” (Proceedings of the National Academy of Sciences of the …, 2023)

Assays:
[1] = target: T1, hGH fusion with PLVAP ECD, N-terminal deletion C (fusion protein C of Fig. 9) (Mus musculus, UniProt Q91VC4); test: far-Western, overlay or dot blot; immunoblot: hGH-PLVAP deletion fusions in conditioned medium resolved by SDS-PAGE, blots probed with mAb MECA-32 and rabbit anti-hGH, fluorescent secondary antibodies; details: one partner purified
T1 construct: PLVAP, mouse; extends to the C terminus of PLVAP; Limit may be off by one residue; source: HEK/293T, transiently transfected, secreted, in serum-free conditioned medium; not shown: hGH (human growth hormone), N-terminal, kept

[2] = target: T2, hGH fusion with PLVAP ECD from amino acid 104 to the C terminus (fusion protein A of Fig. 9) (Mus musculus, UniProt Q91VC4); test: as above; details: one partner purified
T2 construct: PLVAP, mouse; N terminus at amino acid 104 (TRREME...), extends to the C terminus of PLVAP; source: HEK/293T, transiently transfected, secreted, in serum-free conditioned medium; not shown: hGH (human growth hormone), N-terminal, kept

[3] = target: T3, hGH fusion with PLVAP ECD from amino acid 143, C-terminal deletion G (fusion protein G of Fig. 9) (Mus musculus, UniProt Q91VC4); test: as above; details: one partner purified
T3 construct: PLVAP, mouse; N terminus at amino acid 143 (QEQLKE...); Limit may be off by one residue; source: HEK/293T, transiently transfected, secreted, in serum-free conditioned medium; not shown: hGH (human growth hormone), N-terminal, kept

[4] = target: T4, AP–PLVAP CC2, alkaline phosphatase fused to PLVAP CC2 (Mus musculus, UniProt Q91VC4); test: ELISA; MECA-32/hIgG immobilised on protein A-coated 96-well plates (4 °C overnight); conditioned media with AP-PLVAP CC2, 25 °C, 1 h; 10 mM HEPES pH 7.5, 0.15 M NaCl, 0.05% Tween-20 washes; colorimetric AP reaction (BluePhos); details: one partner purified
T4 construct: PLVAP, mouse, CC2; The plasmid codes for AP followed by a Myc tag and an 8xHis tag; source: HEK/293T, in conditioned media

[5] = target: the molecule itself; test: SDS-PAGE, reducing vs nonreducing; purified fragments from E. coli SHuffle after 3C cleavage; electrophoretic mobilities in reducing and nonreducing gels; shows disulfide-linked dimers
[6] = target: the molecule itself; test: crystal structure; PLVAP CC1; crystal form I (P212121, 0.2 M sodium malonate pH 5.0, 20% PEG3350, sulfur SAD) and crystal form II (I212121, 0.1 M sodium acetate pH 5.0, 15% PEG 4000), 21 °C

B1: MECA-32, anti-PLVAP monoclonal antibody (antibody, V domains shown)
VH: EVQLVESGGGLVQPGRSMKLSCAASGFTFSDYYMAWVRQAPMKGLKWVASISYEGNKTYYGDSVKGRFTISRDNAKSILYLQMNSLKSEDTATYYCARQSYSSYIFDYWGQGVMVTVSS
VL: DIQMTQTPSSMSASLGERVTISCGTSQGVNIFLNWYQQKPDGTIKPLIFFTSHLQSGVPSRFSGSGSGTAYSLTISSLEPEDFAVYYCQQYDSSPPTFGGGTKLYLK
notes: heavy-chain constant region of the hybridoma antibody; light-chain constant region of the hybridoma antibody; the blots used the bought antibody of the same clone name; also called rat mAb MECA-32 (553849; BD Biosciences); source: bought: BD Biosciences (553849)
- binding result [1]: binds
- binding result [2]: binds
- binding result [3]: binds

B2: MECA-32/hIgG, engineered MECA-32 antibody with human constant regions (antibody, V domains shown)
VH: B1 VH
VL: B1 VL
notes: mature VH of MECA-32; human heavy-chain IgG constant region (CH1, CH2 and CH3) with an HRV 3C protease cleavage site between CH1 and CH2; mature VL of MECA-32; human light-chain constant region (CL); Chimeric IgG; held on protein A-coated wells in the assay; also called MECA-32/IgG; engineered MECA-32 Ab; source: HEK/293T, cotransfected heavy- and light-chain plasmids, purified from conditioned …
- binding result [4]: binds

B3: PLVAP extracellular domain (full-length ECD), residues 52 to 438 (domain or fragment, mouse, UniProt Q91VC4 52-438, looked up)
chain: HATTESSLRATEIRADSLYSQVVGLSASQANLSKQLNISLLVKETVMQQLLTTRREMERINASFRQCQGDLITYINYNRFIAAIILSEKQCQEQLKEVNKTCEALLFKLGEKVKTLEMEVAKEKAVCSKDKESLLAGKRQTEEQLEACGKARERQQQEQQVTEENLRKVQSLCIPLDQEKFQADVLSAWRDSLIYRTLETLPYHYQLMPEYASLRRTCESLPGIMTTKIEELARGLRAGIERVTRENAELRRQKLELERAAQAAQEARARAGTEAQARETQLRAECARQTQLALEEKAALRAQRDNLERELEARKRELEQLRTEVDVRISALDTCVKAKSLPAVPPRVSGPPPNPPPIDPASLEEFKKRILESQRLPVVNPAAQPSG
notes: plasmalemma vesicle-associated protein (PLVAP), mouse, extracellular domain, residues 52 to 438; also called PLVAP ECD; pXG61; source: E. coli SHuffle T7, purified (IMAC, 3C protease cleavage, IMAC, SEC); not shown: thioredoxin (E. coli TrxA), N-terminal, cleaved; 8xHis, N-terminal, cleaved
- binding result [5]: binds

B4: PLVAP CC1, residues 141 to 229 (domain or fragment, mouse, UniProt Q91VC4 141-229, looked up)
chain: QCQEQLKEVNKTCEALLFKLGEKVKTLEMEVAKEKAVCSKDKESLLAGKRQTEEQLEACGKARERQQQEQQVTEENLRKVQSLCIPLDQ
notes: PLVAP, mouse, coiled-coil segment CC1, residues 141 to 229 (89 amino acids); Parallel dimer with five interchain disulfide bonds; also called pPMS1170; source: E. coli SHuffle T7, purified (IMAC, 3C protease cleavage, IMAC, SEC); not shown: thioredoxin (E. coli TrxA), N-terminal, cleaved; 8xHis, N-terminal, cleaved
- stoichiometry N [6]: 2

B5: PLVAP CC2, residues 270 to 395 (domain or fragment, mouse, UniProt Q91VC4 270-395, looked up)
chain: ESLPGIMTTKIEELARGLRAGIERVTRENAELRRQKLELERAAQAAQEARARAGTEAQARETQLRAECARQTQLALEEKAALRAQRDNLERELEARKRELEQLRTEVDVRISALDTCVKAKSLPAV
notes: PLVAP, mouse, coiled-coil segment CC2, residues 270 to 395; also called pXG52; source: E. coli SHuffle T7, purified (IMAC, 3C protease cleavage, IMAC, SEC); not shown: thioredoxin (E. coli TrxA), N-terminal, cleaved; 8xHis, N-terminal, cleaved
- binding result [5]: binds
